From US20070207498A1, “Design and construction of dimeric concanavalin a mutants” (LifeScan, Inc., priority 2005, published 2007)

How the values were obtained:
[1] = biological target: dye and sugar-labeled therapeutic human serum albumin (tHSA) (human) (UniProt P02768); test: FRET competition assay (FIG. 12), 4-parameter logistic fit; unlabeled tetramer against labeled tetrameric ConA on HSA
[2] = biological target: dye and sugar-labeled therapeutic human serum albumin (tHSA) (human) (UniProt P02768); test: FRET competition assay, 384-well plate: unlabeled tetramer displaces labeled tetrameric ConA from HSA; Ki estimated from EC50 and the concentration of labeled tetramer
[3] = biological target: T1, Concanavalin A (ConA) dimer mutant pET32 (D58N, N118C, H121C, E192Q), SEQ ID NOS: 12 and 24 (Canavalia ensiformis, UniProt P02866, D221N/E103Q/H32C/N281C); test: FRET response of sensors, Cy3.5-labeled pET32 dimer mutant ConA (donor) with Alexa647-labeled superoxide dismutase (acceptor); format: binding; conditions: 500 mg/dL glucose; 6 μM to 24 μM ratio, Alexa647-SOD, FIG. 13
T1 construct: made in house
Description: (§1) Functional properties of recombinant ConA have been characterized by Fluorescence Resonance Energy Transfer (FRET) using a PTI QuantaMaster fluorimeter.

[4] = biological target: T1, Concanavalin A (ConA) dimer mutant pET32 (D58N, N118C, H121C, E192Q), SEQ ID NOS: 12 and 24; test: FRET response of sensors, Cy3.5-labeled pET32 dimer mutant ConA (donor) with Cy5.5-labeled superoxide dismutase (acceptor); format: binding; conditions: 500 mg/dL glucose; Cy5.5-SOD, FIG. 14
Description: as §1
Sensors made with Cy3.5-labeled pET32 dimer mutant ConA and Cy5.5-labeled superoxide dismutase (SOD).

[5] = biological target: T2, dye and sugar-labeled therapeutic human serum albumin (tHSA) (human, UniProt P02768 25-609, sugar-labeled (glycoconjugate); labeled with the acceptor Alexa 647; modified residues not stated); test: FRET competition assay, 384-well plate: unlabeled competitor displaces labeled tetrameric ConA from HSA; Ki estimated from EC50 and the concentration of labeled tetramer
T2 construct: also called Alexa-HSA; Alexa-labeled Human Serum Albumin
Description: Mutant ConA was characterized by FRET. […] The EC₅₀ was calculated using a 4-parameter logistic equation.

**Q.** What does the source list for “ConA tetramer (tetrameric ConA used as labeled partner and as unlabeled competitor in the competition binding assay) (from UniProt P02866 30-281)”?
**A.** EC50 [1]: 110 nM; Ki [2]: 9.1 nM

**Q.** Which results are given for `OC[C@H]1OC(O)[C@H](O)[C@@H](O)[C@@H]1O` (some centres unmarked) [glucose]?
**A.** FRET response to the addition of glucose [3]: approximately 262%; FRET response to the addition of glucose [4]: ~266%

B1: pET32 quad mutant ConA (D58N, N118C, H121C, E192Q), stable dimer (other)
chain: ADTIVAVELDTYPNTDIGDPSYPHIGIDIKSVRSKKTAKWNMQNGKVGTAHIIYNSVNKRLSAVVSYPNADSATVSYDVDLDNVLPEWVRVGLSASTGLYKETNTILSWSFTSKLKSCSTCETNALHFMFNQFSKDQKDLILQGDATTGTDGNLELTRVSSNGSPQGSSVGRALFYAPVHIWESSAVVASFQATFTFLIKSPDSHPADGIAFFISNIDSSIPSGSTGRLLGLFPDAN
modifications: unlabeled as competitor in the FIG. 12 assay; labeled with Cy3.5b / Cy3.5 (donor dye) in the FRET and sensor experiments, labeled residues not stated
notes: also called dimer mutant ConA; pET32 dimer ConA mutant
**Q.** How did the Ki [5] turn out when B1 was run?
**A.** ~21 nM
